Results from the supplement of paper PMC12764529.
± gives the half width of the 95% confidence interval.

Tests used:
[1] = folding stability dG unfold (combined trypsin and chymotrypsin); higher = more stable
Procedure, shortened: (§1)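 K50 was inferred by Bayesian fitting of sequencing counts obtained after protease digestion of designed mini-proteins. Unfolding free energy was derived by comparison with a sequence-predicted unfolded-state K50 and a shared folded-state K50, for each protease or both combined. The mini-proteins were under 80 residues, had no cysteine, were carried in a PA-tagged cDNA display construct, and were kept only if AlphaFold2 dimer inter-PAE exceeded 15.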

[2] = folding stability dG unfold from trypsin proteolysis; higher = more stable
Procedure, shortened: as §1

[3] = folding stability dG unfold from chymotrypsin proteolysis; higher = more stable
Procedure, shortened: as §1

Sequence | folding stability dG unfold [1] [kcal/mol] | folding stability dG unfold [2] [kcal/mol] | folding stability dG unfold [3] [kcal/mol]
SAGGSAGGTLKELIDNITRVDPENGKQRMRIPGGAEIEINPEEGQIKIRYYHPGKPQEITLPLPSAGGSAGG [r6_793_TrROS] | 0.651 ± 0.31 | 0.46 ± 0.25 | 0.776 ± 0.24
SAGGSAGGSAGGDLNDAEIIDIYRDPDSDYYYAVFRGPDGGTYLVRFDPNSDRVEVIPLSAGGSAGGSAGGS [r10_674_TrMRF] | 3.05 ± 0.059 | 2.27 ± 0.1 | 3.387 ± 0.024
SAGGSAGGESSRLVAVFKFPPSNPNIKTSISFPSLPKSAKISESQAPFGNEYYLVVVIEVPKNSSAGGSAGG [r6_480_TrMRF] | 3.37 ± 0.16 | 2.6 ± 0.16 | 3.88 ± 0.14
SAGGSAGGSKKKVKVVKVEKPEGDYYVVTVYYEDGKLLKKVVFPKGVKPEEVLEKVKKLVEEESAGGSAGGS [r12_798_TrMRF] | 2.51 ± 0.076 | 1.95 ± 0.043 | 2.82 ± 0.049
SETITLEIELPDGSKLTIEIPVEKIPGVDEYVVTVKITEYLPNGKPRSREFTFLAKSPEEAVEIALLAAGSA [r9_337_TrMRF] | 5.57 ± 0.21 | 4.7 ± 0.24 | 5.57 ± 0.16
SAGGSYLVEVVIEYPKQGVKKTVKLFVNNDPKKAEELAEDIIKELGYPDAKIEIKIIPVDPNDPRVLGSAGG [r13_682_JUSTAS] | 2.25 ± 0.057 | 1.98 ± 0.034 | 2.445 ± 0.022
SAGGSAGGSAGGSEEEIKKLAAEGGSFTATIPVVTPDGKPVEKTVTVEVKTDPKTGKLVSAGGSAGGSAGGS [r10_346_JUSTAS] | 0.791 ± 0.083 | 0.482 ± 0.043 | 0.906 ± 0.025
SAGVVEITFEVPETGEPFTLVIDEDGNVTGRWPSTGDEQEWKLGDKVITFPPNMSPELAAELEKEALSESAG [r14_561_TrMRF] | 0.644 ± 0.18 | 0.66 ± 0.053 | 0.587 ± 0.25
SAGGSAGGSAGGSYEVKEETEPKTGLKITTTTLPDGTIETTTINPATGEVTTTTSSPLESAGGSAGGSAGGS [r10_127_JUSTAS] | 1.73 ± 0.15 | 1.34 ± 0.072 | 1.89 ± 0.052
SAGGPTVVLRVRDADGNLVTVTFDEETKRITVTVVRDGKTRTLTVDMTVDEAIARLRDLFPVEVELVPSAGG [r13_141_TrROS_Hall] | 2.83 ± 0.041 | 2.42 ± 0.051 | 3.05 ± 0.014
SMTPEEVKALAEELAERLKEEGYEVEVKVTVEEVDGEKYVTIEIEVRRPDGSTETFRLVIREDGSIEIYPSA [r9_1027_TrROS_Hall] | 4.37 ± 0.17 | 3.49 ± 0.19 | 4.54 ± 0.17
SAGGIDLDDLPPGDIFIFIKIKMEPVKVDDPDGKEYNRMEIEIFIFRFDPPNGKIQFEPIPMEFYIRSAGGS [r8_486_TrROS] | 3.19 ± 0.23 | 2.83 ± 0.25 | 3.28 ± 0.064
SMKKNYKIKIEIIDIKIYNKNIPKNKPKYITIKAKITIYYKNKPYKYTIEIKYKIYNGKIYIIGSKIKPESA [r9_270_TrMRF] | 3.66 ± 0.11 | 3.36 ± 0.1 | 3.761 ± 0.025
SAGGSAGGSAGGSEKPPIKLKIKVYDPETNELVSEVEVELEPGQSLEELLKKFDVVEIESAGGSAGGSAGGS [r4_187_TrROS_Hall] | 2.66 ± 0.12 | 1.71 ± 0.1 | 2.94 ± 0.064
KMEIKIEVEKVKDEETGEEYIEVKIVVKKENVEEALEKVKKILEEEFNYEIVDVKVEKKDDYVVITVKIRLS [r1_337_TrROS_Hall] | 2.89 ± 0.53 | 3.15 ± 0.22 | 2.21 ± 0.41
SAGGSAGGSEKTIKITIKVKVKKKVTVKNKNGEKKTFEFEEKTYTLTTIKFDSKEDALKALKKSAGGSAGGS [r12_452_TrROS_Hall] | 2.17 ± 0.22 | 1.35 ± 0.044 | 2.48 ± 0.073
SAGGSANVQVEQTGDGKIKIEFPWYGAEITLNPKKGDIEVEVLPNYKNGQPPPEDEVKNLAKEILDSAGGSA [r15_735_TrROS] | 0.739 ± 0.13 | -0.0532 ± 0.092 | 0.971 ± 0.047
SAGGSAMEIEVEKNEDGTVTIRFRDKETGEEIEIEIEVEPGMTEEEVREKAEELAEELKKKGIEIESAGGSA [r15_1022_TrROS_Hall] | 2.89 ± 0.23 | 2.82 ± 0.19 | 2.73 ± 0.19
SMVTVEEYEEDDEYYVKVYDPEKGVGVVFKTKDGVFKMPVTDPEALKEAIKASGIDVEIVEVRPLGPGLVSA [r9_1102_JUSTAS] | 0.492 ± 0.083 | 0.357 ± 0.036 | 0.581 ± 0.1
SAGMVLKITVKDKKTKEEREIVIEIPEDDPELKKLGIKSPEELAKKLAEELKKEGIEVEEVKVEAYPLPSAG [r5_722_TrROS_Hall] | 1.78 ± 0.25 | 1.23 ± 0.096 | 2.04 ± 0.084
SAGGSAGGSAWKKFMLEFPDGRPFMIEIDPDEPGRVKIYPPGNGKEEEIPPDDLKDLKITASAGGSAGGSAG [r3_451_TrROS] | 0.507 ± 0.33 | -0.0506 ± 0.36 | 0.718 ± 0.27
